For assay [1], the target named is T1, recombinant E. coli DNA gyrase (E. coli, UniProt P0AES4 2-875; P0AES6 2-804). Put plainly: cell-based or functional assay.
In assay [2] the target is T1, recombinant E. coli DNA gyrase. Put plainly: SPR (BIAcore 3000), MfpA amine-coupled to CM5 chip, E. coli DNA gyrase as analyte, 1:1 Langmuir fit. A general note: In SPR one partner is held on a chip, and binding of the other changes the refractive index at the surface.

From patent US8999894 (ALBERT EINSTEIN COLLEGE OF MEDICINE OF YESHIVA UNIVERSITY, dated 2015) come the findings set out here.

The Kd is a measure of binding affinity in units of concentration. For orientation: koff means the rate constant with which the complex falls apart.

T1 sequence (P0AES4 2-875 limits assumed, one chain of several): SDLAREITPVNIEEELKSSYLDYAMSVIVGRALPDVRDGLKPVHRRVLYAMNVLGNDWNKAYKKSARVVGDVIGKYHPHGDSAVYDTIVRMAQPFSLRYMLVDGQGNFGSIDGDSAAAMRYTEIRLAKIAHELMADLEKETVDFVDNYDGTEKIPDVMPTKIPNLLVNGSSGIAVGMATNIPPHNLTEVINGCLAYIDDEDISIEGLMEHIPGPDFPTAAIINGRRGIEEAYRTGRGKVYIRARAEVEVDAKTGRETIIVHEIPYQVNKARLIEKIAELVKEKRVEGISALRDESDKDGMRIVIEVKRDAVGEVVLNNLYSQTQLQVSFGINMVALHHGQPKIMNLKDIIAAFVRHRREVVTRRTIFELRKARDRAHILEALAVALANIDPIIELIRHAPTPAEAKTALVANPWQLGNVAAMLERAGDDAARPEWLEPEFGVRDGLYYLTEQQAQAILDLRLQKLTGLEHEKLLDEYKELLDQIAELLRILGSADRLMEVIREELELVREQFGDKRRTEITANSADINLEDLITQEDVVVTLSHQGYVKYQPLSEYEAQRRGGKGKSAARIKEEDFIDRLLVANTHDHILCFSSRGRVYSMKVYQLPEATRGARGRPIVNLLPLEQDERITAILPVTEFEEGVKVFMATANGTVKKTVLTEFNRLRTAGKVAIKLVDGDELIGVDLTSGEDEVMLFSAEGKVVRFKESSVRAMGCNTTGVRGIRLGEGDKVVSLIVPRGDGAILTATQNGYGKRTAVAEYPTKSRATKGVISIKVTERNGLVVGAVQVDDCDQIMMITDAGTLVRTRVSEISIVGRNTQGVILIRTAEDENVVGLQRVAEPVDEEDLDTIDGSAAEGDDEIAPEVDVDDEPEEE

B1: Mycobacterium tuberculosis MfpA pentapeptide repeat protein (Rv3361c gene product) (other)
chain: QQWVDCEFTGRDFRDEDLSRLHTERAMFSECDFSGVNLAESQHRGSAFRNCTFERTTLWHSTFAQCSMLGSVFVACRLRPLTLDDVDFTLAVLGGNDLRGLNLTGCRLRETSLVDTDLRKCVLRGADLSGARTTGARLDDADLRGATVDPVLWRTASLVGARVDVDQAVAFAAAHGLCLA
notes: also called MtMfpA
Regarding B1, in assay [1], the “inhibition of ATP-dependent DNA supercoiling by E. coli DNA gyrase, apparent IC50” value was about 1200 nM and the “inhibition of ATP-independent relaxation by E. coli DNA gyrase, apparent IC50” value is about 1200 nM. In assay [2], the equilibrium dissociation constant (Kd) came out at 460 nM and the koff was about 0.0001 s⁻¹.
